Ends that are not written are not given here.

Assay [1] concerns the target Mouse-human chimeric antibody 18B7 (IgG1) (mouse | human). Briefly: SPR; BIAcore 3000; antibody immobilised on a CM5 chip through primary amino groups; peptide P1 1.56 µM to 200 µM at 100 µl/min in 0.2 mM K2HPO4/KH2PO4 pH 6.5, 150 mM KCl, 0.01% Tween 20; 25°C; global fit to a two-state model, equilibrium constants calculated from the rate constants.
Assay [2] deals with deglycosylated form of mAb 18B7 (mouse). The assay is described as above.
For assay [3], the target named is GXM-binding murine monoclonal antibody 18B7 (mouse). The assay is described as above.
A further assay addresses T1, thyroglobulin (Bos taurus (assumed), UniProt P01267).
T1 construct: thyroglobulin (Sigma); source: bought: Sigma
Put plainly: ELISA; polystyrene plates coated overnight at 4°C with antigen at 5 µg/ml in bicarbonate buffer pH 9.6; blocked with 1% BSA in TBS; Abs added at 40 µg/ml in 1% BSA/TBS and serially diluted, overnight at 4°C; alkaline-phosphatase conjugated anti-mouse or anti-human IgG. As to conditions: both partners purified. Background: An ELISA detects its analyte on a solid surface through an enzyme-linked reagent.

T1 sequence (P01267 20-2769): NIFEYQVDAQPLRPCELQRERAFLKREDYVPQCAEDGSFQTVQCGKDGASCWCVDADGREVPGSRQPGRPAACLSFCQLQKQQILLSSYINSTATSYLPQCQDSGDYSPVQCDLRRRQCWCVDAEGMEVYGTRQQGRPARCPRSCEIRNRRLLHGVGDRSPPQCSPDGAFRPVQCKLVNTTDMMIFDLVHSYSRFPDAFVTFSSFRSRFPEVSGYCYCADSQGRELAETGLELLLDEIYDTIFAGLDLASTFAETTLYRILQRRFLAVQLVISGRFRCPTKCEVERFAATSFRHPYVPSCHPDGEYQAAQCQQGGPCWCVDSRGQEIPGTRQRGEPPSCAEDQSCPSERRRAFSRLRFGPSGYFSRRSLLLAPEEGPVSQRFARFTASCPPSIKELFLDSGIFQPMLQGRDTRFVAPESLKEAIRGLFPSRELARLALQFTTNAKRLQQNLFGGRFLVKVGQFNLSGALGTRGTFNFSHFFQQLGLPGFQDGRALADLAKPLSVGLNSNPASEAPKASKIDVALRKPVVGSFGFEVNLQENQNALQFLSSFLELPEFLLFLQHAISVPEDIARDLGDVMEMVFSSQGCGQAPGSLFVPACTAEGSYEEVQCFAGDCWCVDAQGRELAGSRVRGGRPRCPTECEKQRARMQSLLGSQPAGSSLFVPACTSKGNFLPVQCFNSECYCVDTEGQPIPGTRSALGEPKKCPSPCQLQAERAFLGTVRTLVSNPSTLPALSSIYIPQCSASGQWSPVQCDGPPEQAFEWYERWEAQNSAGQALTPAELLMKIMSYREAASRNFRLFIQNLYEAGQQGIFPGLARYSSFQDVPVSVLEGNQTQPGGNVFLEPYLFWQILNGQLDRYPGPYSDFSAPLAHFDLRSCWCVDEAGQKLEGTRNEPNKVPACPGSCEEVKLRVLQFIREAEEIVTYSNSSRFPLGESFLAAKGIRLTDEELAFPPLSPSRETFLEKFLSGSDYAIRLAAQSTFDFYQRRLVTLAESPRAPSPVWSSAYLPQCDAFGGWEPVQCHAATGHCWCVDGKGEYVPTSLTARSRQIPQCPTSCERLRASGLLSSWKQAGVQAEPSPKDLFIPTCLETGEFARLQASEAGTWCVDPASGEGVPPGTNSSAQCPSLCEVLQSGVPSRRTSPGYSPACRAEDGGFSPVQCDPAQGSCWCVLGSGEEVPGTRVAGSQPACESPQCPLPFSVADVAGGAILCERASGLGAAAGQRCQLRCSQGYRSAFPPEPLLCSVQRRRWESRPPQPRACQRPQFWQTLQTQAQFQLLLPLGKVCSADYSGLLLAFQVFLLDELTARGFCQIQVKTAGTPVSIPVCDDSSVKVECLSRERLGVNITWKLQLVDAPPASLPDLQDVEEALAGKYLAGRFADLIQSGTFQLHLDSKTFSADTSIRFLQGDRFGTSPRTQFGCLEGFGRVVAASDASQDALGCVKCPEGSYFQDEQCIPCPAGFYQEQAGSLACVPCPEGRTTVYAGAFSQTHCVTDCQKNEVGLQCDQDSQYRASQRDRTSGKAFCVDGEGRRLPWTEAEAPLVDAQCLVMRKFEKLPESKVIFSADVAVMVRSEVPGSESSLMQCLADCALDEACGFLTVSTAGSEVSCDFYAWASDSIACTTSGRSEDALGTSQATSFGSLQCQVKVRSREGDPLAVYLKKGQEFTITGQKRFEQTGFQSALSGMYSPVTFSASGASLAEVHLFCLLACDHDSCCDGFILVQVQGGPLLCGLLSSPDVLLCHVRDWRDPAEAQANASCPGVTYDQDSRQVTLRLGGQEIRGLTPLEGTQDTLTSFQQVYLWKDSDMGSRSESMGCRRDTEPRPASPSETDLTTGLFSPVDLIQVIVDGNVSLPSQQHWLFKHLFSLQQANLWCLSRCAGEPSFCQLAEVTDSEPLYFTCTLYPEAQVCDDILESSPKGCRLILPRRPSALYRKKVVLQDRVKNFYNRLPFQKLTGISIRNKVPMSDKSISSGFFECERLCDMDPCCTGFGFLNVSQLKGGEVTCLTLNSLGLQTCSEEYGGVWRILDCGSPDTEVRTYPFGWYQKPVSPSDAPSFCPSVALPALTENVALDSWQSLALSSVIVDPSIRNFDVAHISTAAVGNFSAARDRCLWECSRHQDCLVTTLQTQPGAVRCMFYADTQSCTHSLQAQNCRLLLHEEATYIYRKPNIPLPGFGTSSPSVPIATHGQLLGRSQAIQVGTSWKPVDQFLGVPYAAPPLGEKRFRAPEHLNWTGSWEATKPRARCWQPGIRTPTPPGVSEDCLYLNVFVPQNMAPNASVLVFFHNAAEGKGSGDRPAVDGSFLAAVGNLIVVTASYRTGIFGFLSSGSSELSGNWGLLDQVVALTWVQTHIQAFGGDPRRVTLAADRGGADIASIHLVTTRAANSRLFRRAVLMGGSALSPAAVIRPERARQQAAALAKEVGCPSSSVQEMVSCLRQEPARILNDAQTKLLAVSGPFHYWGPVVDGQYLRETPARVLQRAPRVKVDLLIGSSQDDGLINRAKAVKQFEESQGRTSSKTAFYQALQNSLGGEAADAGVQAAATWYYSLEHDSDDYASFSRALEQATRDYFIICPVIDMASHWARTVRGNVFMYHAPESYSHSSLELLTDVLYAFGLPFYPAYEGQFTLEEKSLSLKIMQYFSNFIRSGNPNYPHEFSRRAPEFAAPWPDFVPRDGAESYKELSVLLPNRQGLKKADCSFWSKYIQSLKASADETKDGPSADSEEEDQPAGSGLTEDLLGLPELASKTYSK

As usually defined, the Kd is the free concentration of one partner at which half of the binding sites on the other are occupied at equilibrium, for simple one-to-one binding. As to SPNQHTPPWMLK (also: biotinylated, position not given here) [Peptide mimetic of GXM P1], the equilibrium dissociation constant (Kd) in assay [1] is 541 µM; in assay [2], 1070 µM; in assay [3], 2330 µM.

B1: Mouse-human chimeric antibody 18B7 (IgG1) (antibody, V domains shown)
VH: DVKLVESGGGLLKLGGSLKLSCVASGFSFSSYFMSWVRQTPEKRLELVAMINNNGDKTYYPDTVRGRFTISRDNAKNTLYLQMSSLKSEDTAMYYCARRDGTFGNHFDYWGQGTTLTVSS
VL: DVVMTQAPLALPVSLGDQASISCRSSQSLAHSNGNTYLHWYLQKPGQSPKLLIYKVSNRFSGVPDRFSGSGSGTDFTLKISRVEAEDLGVYFCSQSTHVPWTFGGGTKLEIK
notes: as the VH of m1 (identical V regions); human IgG1 (γ1) heavy chain constant region; as the VL of m1 (identical V regions); light chain constant region; IgG1; also called chAb 18B7; ch18B7; source: generated by cloning and transfection as described [36], purified by protein L agarose beads
On to B1, for which the binding result with thyroglobulin was “binds”.

B2: GXM-binding murine monoclonal antibody 18B7 (antibody, V domains shown)
VH: DVKLVESGGGLLKLGGSLKLSCVASGFSFSSYFMSWVRQTPEKRLELVAMINNNGDKTYYPDTVRGRFTISRDNAKNTLYLQMSSLKSEDTAMYYCARRDGTFGNHFDYWGQGTTLTVSS
VL: DVVMTQAPLALPVSLGDQASISCRSSQSLAHSNGNTYLHWYLQKPGQSPKLLIYKVSNRFSGVPDRFSGSGSGTDFTLKISRVEAEDLGVYFCSQSTHVPWTFGGGTKLEIK
notes: VH of mAb 18B7; murine IgG1 heavy chain constant region; VL of mAb 18B7; murine light chain constant region; Murine IgG1; also called mAb 18B7; m18B7
In the case of B2, the binding result with thyroglobulin is given as “binds”.

B3: deglycosylated form of mAb 18B7 (antibody, V domains shown)
VH: DVKLVESGGGLLKLGGSLKLSCVASGFSFSSYFMSWVRQTPEKRLELVAMINNNGDKTYYPDTVRGRFTISRDNAKNTLYLQMSSLKSEDTAMYYCARRDGTFGNHFDYWGQGTTLTVSS
VL: DVVMTQAPLALPVSLGDQASISCRSSQSLAHSNGNTYLHWYLQKPGQSPKLLIYKVSNRFSGVPDRFSGSGSGTDFTLKISRVEAEDLGVYFCSQSTHVPWTFGGGTKLEIK
notes: as the VH of m1; murine IgG1 heavy chain constant region, as in m1; as the VL of m1; as the light chain constant region of m1; Same chains as m1 without the N-glycan; PNGase F is known to turn the glycosylated Asn into Asp; also called 18B7dg; mAb 18B7dg; source: mAb 18B7 from hybridoma culture supernatants (protein G), incubated with PNGaseF at 37°C for 24 h, dialyzed against PBS
With B3, in the assay with thyroglobulin, the binding result is listed as “binds”.

The values are drawn from paper PMC2110899, “Exchanging Murine and Human Immunoglobulin Constant Chains Affects the Kinetics and Thermodynamics of Antigen Binding and Chimeric Antibody Autoreactivity” (PLoS ONE, 2007).
